Reference: patent US20170304566A1 (Ablynx, published 2017)

Target: F protein (fusion glycoprotein) of hRSV, Memphis 37 strain (human respiratory syncytial virus, …)
Assay: cell-based or functional assay

B1: SEQ ID NO: 71 (RSV434), trivalent polypeptide consisting of three anti-hRSV immunoglobulin single variable domains (VHH)
chain: DVQLVESGGGLVQAGGSLSISCAASGGSLSNYVLGWFRQAPGKEREFVAAINWRGDITIGPPNVEGRFTISRDNAKNTGYLQMNSLAPDDTAVYYCGAGTPLNPGAYIYDWSYDYWGRGTQVTVSSGGGGSGGGGSGGGGSEVQLVESGGGLVQAGGSLSISCAASGGSLSNYVLGWFRQAPGKEREFVAAINWRGDITIGPPNVEGRFTISRDNAKNTGYLQMNSLAPDDTAVYYCGAGTPLNPGAYIYDWSYDYWGRGTQVTVSSGGGGSGGGGSGGGGSEVQLVESGGGLVQAGGSLSISCAASGGSLSNYVLGWFRQAPGKEREFVAAINWRGDITIGPPNVEGRFTISRDNAKNTGYLQMNSLAPDDTAVYYCGAGTPLNPGAYIYDWSYDYWGRGTQVTVSS
  sensitivity in in vitro neutralization relative to RSV-B 18537: ~6 fold
